Tests used:
[1] = target: SACSIN HEPN domain (recombinant, GST-tag removed) (human); test: native gel or EMSA
[2] = target: SACSIN HEPN domain (recombinant, GST-tag removed) (human); test: SEC

- stoichiometry N [1]: 2
- stoichiometry N [2]: 2
Substance: SACSIN HEPN domain (recombinant, GST-tag removed) (domain or fragment)
